Test: soluble on expression in E. coli; label from the status in PepcDB or PDB records

| Sequence | soluble on expression in E. coli |
| --- | --- |
| MSGIITILGLGAGELDQLTMGVYRKIKEADHLFVRTKEHPVIEELEKEGVQYTSFDAVYEAHDTFEIVYETIANKLLEQAEGTEIIYAVPGHPLVAERTVQLLLEKGEVSNVEVRIEGGQSFLDPMFASLKIDPIEGFQLLDATSFERGQLELRQHLIFCQVYDAFVASDVKLTLMEMLPDDYEVYIVTAAGTSFEQVKKVPLYMLDHETELNNLTSVYMPPVQERASLYQQFDVLREIIAELRGPNGCPWDKKQTHQSLKKYLIEEAYEVLEAIDEEDDDHLVEELGDILLQVMLHAQIGEDEGWFSIDDIIRTLSEKMVRRHPHVFGNTDVNSADEVIANWEEIKKQEKGFVKESVLNGVPKSLPQLLRAYEIQKKAGKVGFDWVDVQPMIEKALEEWQEFQQEVTNMDEEKMLGEFGDLLFAFVNIARHYKIDPEEALRSTNEKFTGRFLYMEAKVAEMNKEMKDLSLEQLDVLWEEAKQTER | not soluble |
| MASLPTANPDLVVSDAKKPKWSWRAIKSFAMGELEARKLKYPNTGTEALLMGILIEGTSFTSKFLRANKIMLYKVREETVKLLGKADMYFFSPEHPPLTEDAQRALDSALDQNLKAGGIGEVMPAHILLGIWSEVESPGHKILATLGFTDEKSKELESFASESGFLDELEHHHHHH | soluble |
| MGHHHHHHSHGTRMDHRSDLVFLADLRPEEIRYRLQHYFKFLFVREPLERLLSAYRNKFGEIREYQQRYGAEIVRRYRAGAGPSPAGDDVTFPEFLRYLVDEDPERMNEHWMPVYHLCQPCAVHYDFVGSYERLEADANQVLEWVRAPPHVRFPARQAWYRPASPESLHYHLCSAPRALLQDVLPKYILDFSLFAYPLPNVTKEACQQ | not soluble |
| MDALIMAGGKGTRLKENVEKPILNICEKPMIDYVIDSLLNSKIEKIYVAVSIHTPKTKEYLEKKYRLDRNYNPKIDIICTSGTNYVDDLNECMEFFKEPFLILSSDIPTIKPKVINSIIQDYLFVNNSCNRIESFCVVTKDDDYVGTPSINMGGYIPLGINILTPKHGEQTEILHVIKDIIVNVNTLSDKKLVETLINKVVELEHHHHHH | soluble |
| MDVLNAANDLLPLLPEVQDALSEDFDGVECSMGAGVVLEQAPFRMAFPHMGRQVTFVPDTSCLEEFDGAKLHRINLGPKSAVFTDGEPGCCMELILGAGKDWKTPLVKLFSRVYPNKWAFFITELESGQATYHILSSSHGMLSSARREDTPDSTEQSSMVSSPTASVSDATNYSLWIVPVTKVFAIPAPKKVKVVRKVIKKRTPVDGSTNGTNGTSVVNGNGTMNGHVSPEDGERKVRLVKKKPPTEKLESSTEREISPLNDLPKPEFSTIASSESMKTVINGKSEREEAGPSNDSSDGGSASELRKKLTEKIMEQKFMVNGEQRALNGNASSRGLGRSISRSSMTPDRRLDPILEDGSKQRQAIASAISVNRPSITRNSATPPMTPHSKLALEMLFKLDKLWKYFKFIYSKCRYTFIQFFNSTFSNTKIYSVEIMDAEVIKVLVSHPSKPNIPVMVLQLVLTKCLNYEHLGRLREVHPHWDEIAGQLLNSGYYKLLERSDKLLMTLQRKVVSDPGLHYATSVLTNIQMHILNPVDIMRAVLDEGVCCFPYGVILDKTFILLDKVEAMLHGSYEEDVHWEPVAKLAKKAASHYRGNLERVMEERMGENLRLKAAQRIIRLESFVVDAQVAKLEKESNKAKEDVRWEIDQLHQKNSQLRKDNREMKANQMRLEARVEALEQKFKTLARLLS | not soluble |
| MGSDKIHHHHHHMAEFFPEIPKIQFEGKESTNPLAFRFYDPNEVIDGKPLKDHLKFSVAFWHTFVNEGRDPFGDPTAERPWNRFSDPMDKAFARVDALFEFCEKLNIEYFCFHDRDIAPEGKTLRETNKILDKVVERIKERMKDSNVKLLWGTANLFSHPRYMHGAATTCSADVFAYAAAQVKKALEITKELGGEGYVFWGGREGYETLLNTDLGLELENLARFLRMAVEYAKKIGFTGQFLIEPKPKEPTKHQYDFDVATAYAFLKNHGLDEYFKFNIEANHATLAGHTFQHELRMARILGKLGSIDANQGDLLLGWDTDQFPTNIYDTTLAMYEVIKAGGFTKGGLNFDAKVRRASYKVEDLFIGHIAGMDTFALGFKIAYKLAKDGVFDKFIEEKYRSFKEGIGKEIVEGKTDFEKLEEYIIDKEDIELPSGKQEYLESLLNSYIVKTIAELR | not soluble |

Source: the DeepSol protein solubility set
